Results: publication PMC6642547

Molecular target: human GITR-Fc (human) (UniProt Q9Y5U5)
Assay: not stated; binding to and dissociation from the GITR-Fc receptors measured in real time, equilibrium binding constants (KD) calculated; instrument and who was immobilised not told in what was shown

human GITR-Fc (human), sequence (Q9Y5U5 26-162): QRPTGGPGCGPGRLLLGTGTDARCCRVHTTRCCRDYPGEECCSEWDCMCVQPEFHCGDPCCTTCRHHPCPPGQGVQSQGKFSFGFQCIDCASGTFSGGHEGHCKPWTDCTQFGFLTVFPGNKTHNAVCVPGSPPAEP

Kd: 0.366 nM
Substance: HERA-GITRL (hexavalent TNF receptor agonist; single-chain GITRL-receptor-binding-domain fused to a silenced human IgG1 Fc) (from UniProt Q9UNG2 56-177; Q9UNG2 56-177; Q9UNG2 56-177) (Fc fusion)
